This passage reports IC50 results from patent US20210214414A1 (Pfizer, published 2021).

The target of test [1] is T1, Rat SLIT1-N (rat, UniProt O88279 34-1124, limits assumed).
T1 construct: domain: SLIT1-N; d2-labelled in the HTRF assay
T1 sequence (looked up): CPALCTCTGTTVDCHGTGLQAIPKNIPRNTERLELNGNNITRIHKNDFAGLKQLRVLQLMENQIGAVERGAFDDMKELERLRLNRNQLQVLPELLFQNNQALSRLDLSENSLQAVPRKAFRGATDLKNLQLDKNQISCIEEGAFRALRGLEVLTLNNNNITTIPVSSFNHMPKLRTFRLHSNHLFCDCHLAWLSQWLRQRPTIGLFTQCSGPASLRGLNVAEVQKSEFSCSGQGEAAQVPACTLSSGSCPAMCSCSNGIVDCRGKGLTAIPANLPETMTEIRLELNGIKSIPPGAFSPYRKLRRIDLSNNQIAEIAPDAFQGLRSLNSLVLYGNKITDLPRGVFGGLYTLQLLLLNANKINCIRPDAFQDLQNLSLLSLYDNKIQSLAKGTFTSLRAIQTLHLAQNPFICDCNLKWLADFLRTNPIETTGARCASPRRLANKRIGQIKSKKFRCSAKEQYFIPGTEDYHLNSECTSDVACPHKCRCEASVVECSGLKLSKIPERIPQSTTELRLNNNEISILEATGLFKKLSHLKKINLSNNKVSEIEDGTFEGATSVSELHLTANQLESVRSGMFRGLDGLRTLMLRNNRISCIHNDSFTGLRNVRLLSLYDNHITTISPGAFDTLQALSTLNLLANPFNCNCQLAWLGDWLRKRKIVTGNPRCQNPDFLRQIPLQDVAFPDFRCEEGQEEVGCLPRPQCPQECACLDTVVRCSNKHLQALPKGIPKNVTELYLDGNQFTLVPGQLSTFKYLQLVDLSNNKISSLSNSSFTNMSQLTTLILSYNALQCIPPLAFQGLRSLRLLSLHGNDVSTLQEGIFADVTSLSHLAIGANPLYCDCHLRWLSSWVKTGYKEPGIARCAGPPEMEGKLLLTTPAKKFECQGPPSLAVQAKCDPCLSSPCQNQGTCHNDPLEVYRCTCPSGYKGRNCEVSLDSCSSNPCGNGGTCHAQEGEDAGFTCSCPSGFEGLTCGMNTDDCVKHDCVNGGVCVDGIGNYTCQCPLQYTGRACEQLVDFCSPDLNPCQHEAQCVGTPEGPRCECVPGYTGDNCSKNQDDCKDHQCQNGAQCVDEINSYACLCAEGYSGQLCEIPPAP
Put plainly: HTRF competition: d2-labelled rat SLIT1-N binding to human ROBO2 on HEK293 cells; geometric mean, n=3. The protocol: (§1) After incubation, fluorescence at 665 nm and 620 nm was measured on an Envision multilabel plate reader. The HTRF Ratio was calculated as follows: fluorescence at 665 nm/fluorescence at 620 nm×10,000. […] The IC₅₀ for each SLITx-N was determined using an 11-point, 4-fold dilution series with a top concentration of 4000 nM.
For orientation: Time-resolved FRET reads energy transfer from a long-lived donor to a nearby acceptor.

Test [2] addresses T2, Mouse SLIT2-N (mouse, UniProt Q9R1B9 26-1113, limits assumed).
T2 construct: domain: SLIT2-N; d2-labelled in the HTRF assay
T2 sequence (looked up): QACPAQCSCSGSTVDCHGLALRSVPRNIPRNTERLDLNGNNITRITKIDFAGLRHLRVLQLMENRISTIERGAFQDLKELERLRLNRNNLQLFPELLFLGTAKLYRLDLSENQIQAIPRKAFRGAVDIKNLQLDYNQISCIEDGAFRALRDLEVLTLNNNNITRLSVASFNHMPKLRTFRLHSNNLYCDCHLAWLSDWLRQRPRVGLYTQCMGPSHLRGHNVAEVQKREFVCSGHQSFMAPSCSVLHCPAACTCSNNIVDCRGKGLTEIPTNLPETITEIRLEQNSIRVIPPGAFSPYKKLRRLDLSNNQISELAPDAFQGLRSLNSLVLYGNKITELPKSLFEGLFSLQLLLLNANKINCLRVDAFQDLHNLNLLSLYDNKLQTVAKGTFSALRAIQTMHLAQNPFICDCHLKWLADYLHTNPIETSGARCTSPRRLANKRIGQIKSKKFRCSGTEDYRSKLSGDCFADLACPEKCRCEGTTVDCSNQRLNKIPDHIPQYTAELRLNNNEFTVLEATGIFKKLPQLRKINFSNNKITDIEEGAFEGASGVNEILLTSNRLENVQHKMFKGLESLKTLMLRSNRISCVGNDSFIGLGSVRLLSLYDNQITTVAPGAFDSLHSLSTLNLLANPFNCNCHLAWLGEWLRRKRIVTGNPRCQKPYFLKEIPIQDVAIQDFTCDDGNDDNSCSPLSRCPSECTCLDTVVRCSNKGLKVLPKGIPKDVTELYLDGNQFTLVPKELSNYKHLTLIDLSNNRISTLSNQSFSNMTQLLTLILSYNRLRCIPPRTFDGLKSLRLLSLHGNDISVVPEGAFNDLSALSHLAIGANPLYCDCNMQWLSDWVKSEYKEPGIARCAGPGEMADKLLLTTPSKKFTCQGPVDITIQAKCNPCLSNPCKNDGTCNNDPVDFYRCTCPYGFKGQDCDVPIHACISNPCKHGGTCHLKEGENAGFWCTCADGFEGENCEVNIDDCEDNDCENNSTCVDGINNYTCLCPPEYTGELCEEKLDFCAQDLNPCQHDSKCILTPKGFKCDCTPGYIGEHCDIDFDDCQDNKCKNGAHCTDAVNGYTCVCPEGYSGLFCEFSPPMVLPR
Put plainly: HTRF competition: d2-labelled mouse SLIT2-N binding to human ROBO2 on HEK293 cells; geometric mean, n=3. As to the method:
as §1

B1: ROBO2-Fc 2.2 (Fc fusion)
chain: SRLRQEDFPPRIVEHPSDVIVSKGEPTTLNCKAEGRPTPTIEWYKDGERVETDKDDPRSHRMLLPSGSLFFLRIVHGRRSKPDEGSYVCVARNYLGEAVSRNASLEVALLRDDFRQNPTDVVVAAGEPAILECQPPRGHPEPTIYWKKDKVRIDDKEERISIRGGKLMISNTRKSDAGMYTCVGTNMVGERDSDPAELTVFERGGSGGSEPKSSDKTHTCPPCPAPEAAGAPSVFLFPPKPKDTLMISRTPEVTCVVVDVSHEDPEVKFNWYVDGVEVHNAKTKPREEQYNSTYRVVSVLTVLHQDWLNGKEYKCKVSNKALPAPIEKTISKAKGQPREPQVYTLPPSREEMTKNQVSLTCLVKGFYPSDIAVEWESNGQPENNYKTTPPVLDSDGSFFLYSKLTVDKSRWQQGNVFSCSVMHEALHNHYTQKSLSLSPG
notes: Labelled with Alexa Fluor 647 in the flow cytometry assay; also called ROBO-Fc 2.2; ROBO2-Fc 2.2-AF647
Usually IC50 stands for the concentration that gives 50% inhibition. For the molecule B1, the IC50 was 8.3 nM in test [1] and 5.4 nM in test [2].
